PMC7671560, “SAXS studies of X-ray induced disulfide bond damage: Engineering high-resolution insight from a low-resolution technique” (PLoS ONE, 2020)

Target: the molecule itself
Assay: SEC; Superdex 200 10/300 in 20 mM Tris-HCl pH 7.5, 50 mM NaCl, 5 mM EDTA; 100 uL at about 5 mg/ml injected; elution times compared to a standard curve; monomer to disulfide-linked dimer

B1: endoHCYS (FRAGCYS-endoH-His6; Endoglycosidase-H with a 7 aa cysteine-containing fragment on its N-terminus) (enzyme)
chain: SLSTGCYVKQGPTSVAYVEVNNNSMLNVGKYTLADGGGNAFDVAVIFAANINYDTGTKTAYLHFNENVQRVLDNAVTQIRPLQQQGIKVLLSVLGNHQGAGFANFPSQQAASAFAKQLSDAVAKYGLDGVDFDDEYAEYGNNGTAQPNDSSFVHLVTALRANMPDKIISLYNIGPAASRLSYGGVDVSDKFDYAWNPYYGTWQVPGIALPKAQLSPAAVEIGRTSRSTVADLARRTVDEGYGVYLTYNLDGGDRTADVSAFTRELYGSEAVRTP
notes: 7 aa fragment with a single free cysteine ('FRAGCYS') attached to the flexible N-terminus of endoH; Endoglycosidase-H (endoH), P04067, aa 47-313; has no native cysteines; The chain is written once as the protomer; two protomers join through an intermolecular disulfide between the cysteines of FRAGCYS (about 75% dimer, 25% monomer in the preparation); The structure's own numbering has Val-8 as the …
How did the “stoichiometry N” value turn out when B1 was run?
The value was 2.
